Literature values, collected in article PMC4610346.
pKd: −log10 of the molar value.

Target: Jun leucine zipper (Homo sapiens) (UniProt P05412)
Sequence (P05412 277-311): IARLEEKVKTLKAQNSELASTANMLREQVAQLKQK

Fos leucine zipper, sequence (P01100 162-196): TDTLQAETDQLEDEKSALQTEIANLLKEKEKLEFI

For “Fos leucine zipper (from UniProt P01100)”, the pKd is given as 7.27.
